Data set [1] in a line: Membrane permeability in Caco-2 monolayers. The class given is in vitro ADME. Particulars: human, Caco-2; Test Conc. 10 uM. How it is done: (§1) Membrane permeability of Conjugate 57 was measured in Caco-2 monolayers. The apparent permeability (Papp) was determined to be very low in both the apical to basolateral direction and the basolateral to apical direction.
The test system of data set [2] is Caco-2 monolayers. Briefly: Membrane permeability in Caco-2 monolayers. Type of data set: in vitro ADME. Particulars: Test Conc. 10 uM. On the procedure: as §1
Background: Caco-2 cells form a polarised layer with tight junctions and transporters.

Data set [3] relates to NCI-H69 small cell lung cancer model. The data set can be described thus: NCI-H69 model, comparison with standard of care combination. Type of data set: in vivo, rats. To be noted: Cycle 1 Day 1, Cycle 2 Day 8; Conjugate 57 one cycle at MTD (2 mg/kg), other doses equivalent. How it is done: In yet another study, single cycle of Conjugate 57 treatment was compared with two cycles of standard of care combination in NCI-H69 small cell lung cancer model. NCI-H69 bearing rats were treated with two cycles of cctreotide+DM1, one or two cycles of cisplatin+etoposide, one cycle of Conjugate 57. Cycle 1 was given on Day 1, Cycle 2 on Day 8. Rats were dosed with MTD (2 mg/kg) of Conjugate 57. Octreotide, DM1, cisplatin, and etoposide doses were equivalent to Conjugate 57.

The subject of data set [4] is NCI-H69 SCLC tumors. The data set can be described thus: NCI-H69 SCLC xenografts, PH3 and CC3 after a single dose. Type of data set: in vivo, mice. How it is done: Conjugate 57 was assessed in an in vivo study with NCI-H69 SCLC xenografts model. A single 2 mg/kg dose of Conjugate 57 was administered to mice bearing NCI-H69 SCLC tumors. Levels of cell cycle arrest marker phosphohistone H3 (PH3) were measured at the periphery, middle and core of the tumors. Phosphorylated histone H3 is correlated chromosome condensation during both mitosis and meiosis. […] The biological effects from Conjugate 57 were seen deep in the tumor and distant from blood vessels. Cell death peaks at around 3 days after dosing. […] Conjugates of the present invention can rapidly and deeply penetrate tumor and can exert a prolonged effect on tumor biology.

As a reminder, the Papp A→B is the apparent permeability from the apical to the basolateral side of a cell layer. A low value points to poor permeation. What is called Papp B→A is how fast a substance crosses the layer from the basolateral side. Turning to `COc1cc2cc(c1Cl)N(C)C(=O)C[C@H](OC(=O)[C@H](C)N(C)C(=O)CCSSC[C@H](NC(=O)[C@@H]1CSSC[C@H](NC(=O)[C@H](N)Cc3ccccc3)C(=O)N[C@@H](Cc3ccc(O)cc3)C(=O)N[C@H](Cc3c[nH]c4ccccc34)C(=O)N[C@@H](CCCCN)C(=O)N[C@@H]([C@@H](C)O)C(=O)N1)C(N)=O)[C@]1(C)O[C@H]1[C@H](C)[C@@H]1C[C@@](O)(NC(=O)O1)[C@H](OC)/C=C/C=C(\C)C2` [Conjugate 57], in data set [1], the apical-to-basolateral permeability (Papp A→B) at 10 uM stood at 0.018 ×10⁻⁶ cm/s and the Papp B→A at 10 uM came out at 0.094 ×10⁻⁶ cm/s. In data set [2], the “Mean A→B Papp” value was “very low” and the “Mean B→A Papp” value was “very low”. In addition, the “tumor response (tumor volume)” value in data set [3] is given as “complete regression”. In data set [4] (single 2 mg/kg dose), the “PH3 levels at periphery, middle and core of the tumors” value is “Elevated levels of PH3 are seen at all depths of the tumor through 72 h”. Also, the “time of peak cell death (cleaved caspase-3)” value in data set [4] (single dose of 2 mg/kg) is “around 3 days”.
